# Measured values published in patent publication US20210024601A1 (published 2021).
# T1: recombinant human CD25 extracellular domain tagged with 6xHis (human, UniProt P01589 22-240)
# T1 chain: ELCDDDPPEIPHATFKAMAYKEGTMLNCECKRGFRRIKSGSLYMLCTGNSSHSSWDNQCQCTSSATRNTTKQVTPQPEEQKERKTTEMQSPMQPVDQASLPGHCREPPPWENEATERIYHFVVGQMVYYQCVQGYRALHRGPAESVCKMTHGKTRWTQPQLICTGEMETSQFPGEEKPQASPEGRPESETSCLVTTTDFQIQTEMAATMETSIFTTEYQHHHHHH
# Assays:
# [1] = biological target: T1, recombinant human CD25 extracellular …
# [2] = biological target: I114W
# [3] = biological target: N71Y
# [4] = biological target: L72I
# [5] = biological target: V69A
# [6] = biological target: M104D
Kd [1] [nM],Kd [2] [nM],Kd [3] [nM],Kd [4] [nM],Kd [5] [nM],Kd [6] [nM],Binder
0.022,–,–,–,–,–,E68Q (protein) APTSSSTKKTQLQLEHLLLDLQMILNGINNYKNPKLTRMLTFKFYMPKKATELKHLQCLEEELKPLEQALNLAPSKNFHLRPRDLISNINVIVLELKGSETTFMCEYADETATIVEFLNRWITFSQSIISTLT
–,0.038,0.018,0.024,0.023,0.028,CD25 (receptor) ELCDDDPPEIPHATFKAMAYKEGTMLNCECKRGFRRIKSGSLYMLCTGNSSHSSWDNQCQCTSSATRNTTKQVTPQPEEQKERKTTEMQSPMQPVDQASLPGHCREPPPWENEATERIYHFVVGQMVYYQCVQGYRALHRGPAESVCKMTHGKTRWTQPQLICTGEMETSQFPGEEKPQASPEGRPESETSCLVTTTDFQIQTEMAATMETSIFTTEYQHHHHHH
